Test results from US20050238642A1, “Modified bouganin proteins, cytotoxins and methods and uses thereof” (priority 2004, published 2005).

Legend:
[1] = molecular target: T1, Ep-CAM (Epithelial Cell Adhesion Molecule) (human, UniProt P16422 24-314); experiment: flow cytometry, 10 µg/mL VB6-845 on C-33A cells (cervical; Ep-CAM status of the line not stated), anti-His detection; ± SEM
T1 construct: whole, on cells; also called 17-1A; KSA
T1 sequence: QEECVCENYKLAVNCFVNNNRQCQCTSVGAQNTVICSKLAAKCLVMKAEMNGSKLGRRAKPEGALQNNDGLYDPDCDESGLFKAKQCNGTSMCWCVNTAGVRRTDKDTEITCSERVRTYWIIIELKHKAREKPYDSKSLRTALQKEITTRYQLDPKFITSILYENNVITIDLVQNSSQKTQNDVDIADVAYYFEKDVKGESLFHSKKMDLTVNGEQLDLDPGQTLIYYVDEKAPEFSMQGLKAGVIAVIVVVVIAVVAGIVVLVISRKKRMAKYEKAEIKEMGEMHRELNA

[2] = molecular target: T1, Ep-CAM (Epithelial Cell Adhesion …); experiment: flow cytometry, 10 µg/mL VB6-845 on RL95-2 cells (endometrial), anti-His detection; ± SEM
[3] = molecular target: T1, Ep-CAM (Epithelial Cell Adhesion …); experiment: flow cytometry, 10 µg/mL VB6-845 on SK-OV-3 cells (ovarian), anti-His detection; ± SEM
[4] = molecular target: T1, Ep-CAM (Epithelial Cell Adhesion …); experiment: flow cytometry, 10 µg/mL VB6-845 on HT-3 cells (cervical), anti-His detection; ± SEM
[5] = molecular target: T1, Ep-CAM (Epithelial Cell Adhesion …); experiment: flow cytometry, 10 µg/mL VB6-845 on C-4 I cells (cervical), anti-His detection; ± SEM
[6] = molecular target: T1, Ep-CAM (Epithelial Cell Adhesion …); experiment: flow cytometry, 10 µg/mL VB6-845 on HEC-1-A cells (endometrial), anti-His detection; ± SEM
[7] = molecular target: T1, Ep-CAM (Epithelial Cell Adhesion …); experiment: flow cytometry, 10 µg/mL VB6-845 on NIH:OVCAR-3 cells (ovarian, Ep-CAM-positive), anti-His detection; ± SEM
[8] = molecular target: T1, Ep-CAM (Epithelial Cell Adhesion …); experiment: cell-based or functional assay
[9] = molecular target: T1, Ep-CAM (Epithelial Cell Adhesion …); experiment: cell-based or functional assay; remark: listed apart in the source
[10] = molecular target: T1, Ep-CAM (Epithelial Cell Adhesion …); experiment: flow cytometry, 10 µg/mL VB6-845 on TOV-112G cells (ovarian; Ep-CAM status of the line not stated), anti-His detection; ± SEM
[11] = molecular target: T1, Ep-CAM (Epithelial Cell Adhesion …); experiment: flow cytometry, 10 µg/mL VB6-845 on SK-UT-1 cells (endometrial; Ep-CAM status of the line not stated), anti-His detection; ± SEM
tumor cell lines = experiment: VB6-845 Tumor Cell Indications: binding for scFv 845 to tumor cell lines (median fluorescence)
From the text: Tumor-targeting cytotoxins are composed of the variable region of an antibody linked to a bacterial, fungal or plant toxin. The present study illustrates that the deimmunized bouganin constructs of the invention, comprising deimmunized bouganin linked to a targeting moiety have reduced immunogenicity, while still retaining their biological activity.

NIH:OVCAR-3 = experiment: Flow cytometry reactivity test (Example 7); format: binding; settings: Ep-CAM positive cell line NIH:OVCAR-3
Description: (§1) The flow cytometry tests were conducted by incubating the constructs or control with 0.45×10^6 cells for an hour on ice. After washing, cell surface bound constructs were detected with a rabbit anti-bouganin (for FIG. 10A) or mouse anti-His tag (FIG. 10B) for an hour on ice. The cells were washed and incubated with FITC-conjugated sheep anti-rabbit IgG (FIG. 10A) and FITC-conjugated sheep anti-mouse (IgG) (FIG. 10B) for 30 minutes on ice. Subsequently the cells were washed, resuspended in PBS 5% FCS containing propidium iodide for assessment of antibody binding by flow cytometry.

A-375 = experiment: Flow cytometry reactivity test (Example 7); format: binding; settings: Ep-CAM-negative cell line A-375
Description: as §1

CAL 27 = experiment: Flow cytometry reactivity test (Example 7); format: binding; settings: Ep-CAM positive cell line CAL 27
Description: as §1

B1: VB6-845 (Fab)
chain 1: EVQLVQSGPGLVQPGGSVRISCAASGYTFTNYGMNWVKQAPGKGLEWMGWINTYTGESTYADSFKGRFTFSLDTSASAAYLQINSLRAEDTAVYYCARFAIKGDYWGQGTLLTVSSASTKGPSVFPLAPSSKSTSGGTAALGCLVKDYFPEPVTVSWNSGALTSGVHTFPAVLQSSGLYSLSSVVTVPSSSLGTQTYICNVNHKPSNTKVDKKVEPKSCTRHRQPRGWEQLYNTVSFNLGEAYEYPTFIQDLRNELAKGTPVCQLPVTLQTIADDKRFVLVDITTTSKKTVKVAIDVTDVYVVGYQDKWDGKDRAVFLDKVPTVATSKLFPGVTNRVTLTFDGSYQKLVNAAKADRKALELGVNKLEFSIEAIHGKTINGQEAAKFFLIVIQMVSEAARFKYIETEVVDRGLYGSFKPNFKVLNLENNWGDISDAIHKSSPQCTTINPALQLISPSNDPWVVNKVSQISPDMGILKFKSSK
chain 2: HHHHHHDIQMTQSPSSLSASVGDRVTITCRSTKSLLHSNGITYLYWYQQKPGKAPKLLIYQMSNLASGVPSRFSSSGSGTDFTLTISSLQPEDFATYYCAQNLEIPRTFGQGTKVELKRTVAAPSVFIFPPSDEQLKSGTASVVCLLNNFYPREAKVQWKVDNALQSGNSQESVTEQDSKDSTYSLSSTLTLSKADYEKHKVYACEVTHQGLSSPVTKSFNRGEC
notes: also called Fab anti-Ep-CAM-de-bouganin (Bou156) construct
Q: With B1 as the molecule, how does the “fold-increase in MF” value [1] read?
A: The value was 1.1 fold.

Q: And the “fold-increase in MF” value [2]?
A: Its value is 4.9 fold.

Q: And the “fold-increase in MF” value [3]?
A: Its value is 4.3 fold.

Q: What about the “fold-increase in MF” value [4] of the same molecule?
A: Its value is 29.1 fold.

Q: And the “fold-increase in MF” value [5]?
A: The value was 6.8 fold.

Q: And the “fold-increase in MF” value [6]?
A: Its value is 42.3 fold.

Q: What about the “fold-increase in MF” value [7] of the same molecule?
A: The value was 33.6 fold.

Q: And the “IC50 nM, MTS cytotoxicity assay, C-4 I cells (VB6-845 70% pure)” value [8]?
A: Its value is 1.7 nM.

Q: And the “IC50 nM, MTS cytotoxicity assay, Caov-3 cells (VB6-845 70% pure)” value [8]?
A: The value was 1.3 nM.

Q: And the “IC50 nM, MTS cytotoxicity assay, HEC-1-A cells (VB6-845 70% pure)” value [8]?
A: The value was 43 nM.

Q: And the “IC50 nM, MTS cytotoxicity assay, HT-3 cells (VB6-845 70% pure)” value [8]?
A: Its value is 23 nM.

Q: What about the “IC50 nM, MTS cytotoxicity assay, KLE cells (VB6-845 70% pure)” value [8] of the same molecule?
A: The value was greater than 100 nM.

Q: And the “IC50 nM, MTS cytotoxicity assay, ME-180 cells (VB6-845 70% pure)” value [8]?
A: Its value is 37 nM.

Q: And the “IC50 nM, MTS cytotoxicity assay, MS751 cells (VB6-845 70% pure)” value [8]?
A: Its value is 0.43 nM.

Q: What about the “IC50 nM, MTS cytotoxicity assay, NIH-OVCAR-3 cells (VB6-845 70% pure)” value [8] of the same molecule?
A: Its value is 3.4 nM.

Q: What about the “IC50 nM, MTS cytotoxicity assay, RL95-2 cells (VB6-845 70% pure)” value [8] of the same molecule?
A: The value was 100 nM.

Q: And the “IC50 nM, MTS cytotoxicity assay, SK-OV-3 cells (VB6-845 70% pure)” value [8]?
A: Its value is greater than 100 nM.

Q: What about the “IC50 nM, MTS cytotoxicity assay, NIH:OVCAR-3 cells (VB6-845 90% pure)” value [9] of the same molecule?
A: Its value is 1 nM.

Q: And the “fold-increase in MF” value [10]?
A: Its value is 1.1 fold.

Q: What about the “fold-increase in MF” value [11] of the same molecule?
A: Its value is 1.1 fold.

B2: scFv 845: the Ep-CAM antibody of VB6-845, head prints scFv 845 (IgG) (antibody, chains of the INN, looked up, V domains shown)
VH: EVQLVQSGPGLVQPGGSVRISCAASGYTFTNYGMNWVKQAPGKGLEWMGWINTYTGESTYADSFKGRFTFSLDTSASAAYLQINSLRAEDTAVYYCARFAIKGDYWGQGTLLTVSS
VL: DIQMTQSPSSLSASVGDRVTITCRSTKSLLHSNGITYLYWYQQKPGKAPKLLIYQMSNLASGVPSRFSSSGSGTDFTLTISSLQPEDFATYYCAQNLEIPRTFGQGTKVELK
modifications: scFv
Q: For B2, which “Binding for scFv 845 (IgG): mean fold-increase in median fluorescence over the control antibody” value (tumor cell lines; Bladder, 14 cell lines) is on record?
A: Its value is 59.6 fold.

Q: What about the “Binding for scFv 845 (IgG): mean fold-increase in median fluorescence over the control antibody” value (tumor cell lines; Cervical, 3 cell lines) of the same molecule?
A: Its value is 37.5 fold.

Q: What about the “Binding for scFv 845 (IgG): mean fold-increase in median fluorescence over the control antibody” value (tumor cell lines; Endometrial, 1 cell line) of the same molecule?
A: The value was 23.8 fold.

Q: And the “Binding for scFv 845 (IgG): mean fold-increase in median fluorescence over the control antibody” value (tumor cell lines; Esophageal, 3 cell lines)?
A: The value was 72.4 fold.

Q: And the “Binding for scFv 845 (IgG): mean fold-increase in median fluorescence over the control antibody” value (tumor cell lines; Gastric, 3 cell lines)?
A: Its value is 148.9 fold.

Q: And the “Binding for scFv 845 (IgG): mean fold-increase in median fluorescence over the control antibody” value (tumor cell lines; Head and Neck, 2 cell lines)?
A: The value was 11.4 fold.

Q: What about the “Binding for scFv 845 (IgG): mean fold-increase in median fluorescence over the control antibody” value (tumor cell lines; Kidney, 3 cell lines) of the same molecule?
A: The value was 9.4 fold.

Q: What about the “Binding for scFv 845 (IgG): mean fold-increase in median fluorescence over the control antibody” value (tumor cell lines; Lung, 3 cell lines) of the same molecule?
A: The value was 16.4 fold.

Q: And the “Binding for scFv 845 (IgG): mean fold-increase in median fluorescence over the control antibody” value (tumor cell lines; Melanoma, 3 cell lines)?
A: The value was 1.6 fold.

Q: What about the “Binding for scFv 845 (IgG): mean fold-increase in median fluorescence over the control antibody” value (tumor cell lines; Ovarian, 2 cell lines) of the same molecule?
A: The value was 84.1 fold.

Q: What about the “Binding for scFv 845 (IgG): mean fold-increase in median fluorescence over the control antibody” value (tumor cell lines; Pancreas, 3 cell lines) of the same molecule?
A: Its value is 5.5 fold.

Q: What about the “Binding for scFv 845 (IgG): mean fold-increase in median fluorescence over the control antibody” value (tumor cell lines; Prostate, 5 cell lines) of the same molecule?
A: Its value is 50.1 fold.

B3: VB6-845-CL-de-bouganin: Fab anti-Ep-CAM de-bouganin construct, Bou156 linked at the C-terminus of the CL domain (protein)
chain 1: HHHHHHEVQLVQSGPGLVQPGGSVRISCAASGYTFTNYGMNWVKQAPGKGLEWMGWINTYTGESTYADSFKGRFTFSLDTSASAAYLQINSLRAEDTAVYYCARFAIKGDYWGQGTLLTVSSASTKGPSVFPLAPSSKSTSGGTAALGCLVKDYFPEPVTVSWNSGALTSGVHTFPAVLQSSGLYSLSSVVTVPSSSLGTQTYICNVNHKPSNTKVDKKVEPKSC
chain 2: DIQMTQSPSSLSASVGDRVTITCRSTKSLLHSNGITYLYWYQQKPGKAPKLLIYQMSNLASGVPSRFSSSGSGTDFTLTISSLQPEDFATYYCAQNLEIPRTFGQGTKVELKRTVAAPSVFIFPPSDEQLKSGTASVVCLLNNFYPREAKVQWKVDNALQSGNSQESVTEQDSKDSTYSLSSTLTLSKADYEKHKVYACEVTHQGLSSPVTKSFNRGECTRHRQPRGWEQLYNTVSFNLGEAYEYPTFIQDLRNELAKGTPVCQLPVTLQTIADDKRFVLVDITTTSKKTVKVAIDVTDVYVVGYQDKWDGKDRAVFLDKVPTVATSKLFPGVTNRVTLTFDGSYQKLVNAAKADRKALELGVNKLEFSIEAIHGKTINGQEAAKFFLIVIQMVSEAARFKYIETEVVDRGLYGSFKPNFKVLNLENNWGDISDAIHKSSPQCTTINPALQLISPSNDPWVVNKVSQISPDMGILKFKSSK
Q: Which results are given for B3?
A: shift in median fluorescence (NIH:OVCAR-3): marked shift in median fluorescence; shift in median fluorescence (A-375): No shift in median fluorescence; shift in median fluorescence (CAL 27): marked shift in median fluorescence
